From patent US8252554B2, “Halohydrin dehalogenases and related polynucleotides” (Codexis, Inc., priority 2003, dated 2012)
Residue numbers refer to the chain shown, from its start.

B1: SEQ ID NO: 32: native halohydrin dehalogenase from Agrobacterium radiobacter AD1 (hheC), expressed from SEQ ID NO. 31 (protein)
chain: MSTAIVTNVKHFGGMGSALRLSEAGHTVACHDESFKQKDELEAFAETYPQLKPMSEQEPAELIEAVTSAYGQVDVLVSNDIFAPEFQPIDKYAVEDYRGAVEALQIRPFALVNAVASQMKKRKSGHIIFITSATPFGPWKELSTYTSARAGACTLANALSKELGEYNIPVFAIGPNYLHSEDSPYFYPTEPWKTNPEHVAHVKKVTALQRLGTQKELGELVAFLASGSCDYLTGQVFWLAGGFPMIERWPGMPE
B2: SEQ ID NO: 30: improved HHDH (halohydrin dehalogenase) polypeptide of the Sequence Listing (protein)
chain: B1 chain with A4V
B3: SEQ ID NO: 4: improved HHDH (halohydrin dehalogenase) polypeptide of the Sequence Listing (protein)
chain: B1 chain with K36N, F44L, A45P, S55R
B4: SEQ ID NO: 6: improved HHDH (halohydrin dehalogenase) polypeptide of the Sequence Listing (protein)
chain: B1 chain with A24T
B5: SEQ ID NO: 8: improved HHDH (halohydrin dehalogenase) polypeptide of the Sequence Listing (protein)
chain: B1 chain with R20S, A29T

Assays:
Format in all cases: biochemical
HHDH = HHDH (Agrobacterium tumefaciens, UniProt Q93D82); assay: Inhibition of HHDH by ECAA; details: inhibitor of HHDH
[1] = Example 7 manufacture of ethyl (R)-4-cyano-3-hydroxybutyrate with HHDH cell lysate; details: 40° C., pH 7, 17 hours
Experimental: To a 3-necked jacketed 3 L flask equipped with a mechanical stirrer and connected to an automatic titrater by a pH electrode and a feeding tube for addition of base, was charged H2O (1200 mL), NaCN (37.25 g) and NaH2PO4 (125 g) to bring the solution to pH 7. The water circulator was set to 40° C. After 10 minutes, halohydrin dehalogenase of SEQ ID NO: 32 as cell lysate (250 mL) was added. The reaction mixture was allowed to stir for 5 minutes. Using an addition funnel, ethyl (S)-4-chloro-3-hydroxybutyrate (45 g) was slowly added over 1 hour. The pH was maintained at 7 by the automatic titrater by the addition of 10 M NaOH (27 mL) over 17 hours. […] Celite™ (16 g) was added to the flask, which was then connected to a diaphragm pump, whose exhaust is bubbled into 5M NaOH (200 mL), to remove HCN. The mixture was heated to 60° C. under 100 mm Hg pressure. After 1 hour, a submerged air bubbler was added to the solution to aid the removal of the HCN. After 3 hours, an HCN detector indicated less than 5 ppm HCN in the off-gas. The mixture was allowed to cool to room temperature, then filtered through a Celite™ pad. […] Enantiomeric composition can be readily characterized by using the gas chromatography method described in Example 6, above, and using methods that are known in the art.

[2] = Example 5A gas chromatography assay of HHDH activity (conversion of ECHB to ethyl (R)-4-cyano-3-hydroxybutyrate); details: ECHB substrate; Activity of Improved HHDH Enzyme/Activity of Agrobacterium sp. HHDH (SEQ ID NO: 2)
Experimental: To a solution of ethyl (S)-4-chloro-3-hydroxybutyrate (10 mM-100 mM) in 500 mM HCN (500 mM NaCN adjusted to pH 7.0 with phosphoric acid) was added the halohydrin dehalogenase enzyme as a predissolved solution in the same buffer. Over time, aliquots of the mixture were withdrawn and extracted with three volumes of ethyl acetate. The organic layer was then analysed for ethyl (R)-4-cyano-3-hydroxybutyrate by gas chromatography (GC), as described hereinbelow in Example 6. Samples were taken at various time points, and the peak area of the product cyanohydrin, ethyl (R)-4-cyano-3-hydroxybutyrate, was plotted as a function of time. Time points are selected at low conversion, for example, less than 5% conversion, to avoid the effect of product inhibition (e.g., 0.5%, 1.0%, 1.5%, 2.0%, 2.5%, 3.0%, etc.). The peak areas were converted to concentration units using a standard curve that was prepared for the ethyl (R)-4-cyano-3-hydroxybutyrate. Activity of the halohydrin dehalogenase was determined in units of μmol (cyanohydrin produced)/min/mg (total halohydrin dehalogenase catalyst). Relative activities of some of the clones are shown in Table 2, computed as Activity of Improved HHDH Enzyme/Activity of Agrobacterium sp. HHDH (SEQ ID NO: 2).
The ethyl (R)-4-cyano-3-hydroxybutyrate produced in Example 5A was analyzed using gas chromatography with flame ionization (FID) detection using an Agilent® HP-5™ column, 30 m long, 0.32 mm inner diameter, film 0.25 μm, using the following program: 1 minute at 100° C., 5° C./minute for 10 minutes; 25° C./minute for 2 minutes; then 2 minutes at 200° C. Inlet and outlet temperatures were both 300° C., and the flow rate was 2 ml/minute. Under these conditions, ethyl (R)-4-cyano-3-hydroxybutyrate elutes at 6.25 minutes and ethyl (S)-4-chloro-3-hydroxybutyrate elutes at 4.5 minutes. Chemical purity of the species was measured using the integrated peak areas from the gas chromatography results.

| Molecule | Fold Improvement in HHDH Activity over Aerobacterium sp. HHDH (SEQ ID NO: 2) [2] | other results |
| --- | --- | --- |
| CCOC(=O)CC(=O)CCl [ECAA, Ethyl-4-chloroacetoacetate] | – | Ki (HHDH): ~70 µM |
| B1 | – | conversion to product by gas chromatography [1]: complete conversion to product |
| B2 | 2.8 Fold | – |
| B3 | 1.5 Fold | – |
| B4 | 1.6 Fold | – |
| B5 | 1.8 Fold | – |
